T1: Lsb3, P43603
T1 sequence (P43603 385-451, looked up): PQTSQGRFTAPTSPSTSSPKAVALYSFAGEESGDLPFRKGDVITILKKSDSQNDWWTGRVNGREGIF

T2: Hse1, P38753
T2 sequence (P38753 208-285, looked up): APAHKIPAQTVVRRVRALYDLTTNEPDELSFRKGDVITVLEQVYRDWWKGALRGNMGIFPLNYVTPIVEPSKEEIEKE

T3: Fus1, P11710
T3 sequence (P11710 432-512, looked up): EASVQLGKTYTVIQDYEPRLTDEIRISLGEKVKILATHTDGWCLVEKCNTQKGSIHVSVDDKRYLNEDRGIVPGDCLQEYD

T4: Sla1-3, P32790
T4 sequence (P32790 344-424, looked up): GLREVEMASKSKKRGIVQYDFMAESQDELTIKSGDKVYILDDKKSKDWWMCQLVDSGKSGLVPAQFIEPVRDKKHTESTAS

T5: Pin3, Q06449
T5 sequence (Q06449 53-122, looked up): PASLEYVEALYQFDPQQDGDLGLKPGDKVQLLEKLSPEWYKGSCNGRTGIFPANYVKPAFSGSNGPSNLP

T6: Cdc25, P04821
T6 sequence (P04821 50-136, looked up): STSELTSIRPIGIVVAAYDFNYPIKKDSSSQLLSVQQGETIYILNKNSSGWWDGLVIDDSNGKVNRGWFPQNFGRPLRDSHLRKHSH

T7: Sla1-2, P32790
T7 sequence (P32790 60-140, looked up): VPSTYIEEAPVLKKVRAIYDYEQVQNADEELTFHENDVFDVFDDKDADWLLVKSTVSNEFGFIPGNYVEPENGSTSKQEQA

T8: Nbp2, Q12163
T8 sequence (Q12163 103-180, looked up): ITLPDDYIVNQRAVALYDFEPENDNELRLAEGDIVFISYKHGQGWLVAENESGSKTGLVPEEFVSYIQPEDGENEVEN

T9: Bud14, P27637
T9 sequence (P27637 247-328, looked up): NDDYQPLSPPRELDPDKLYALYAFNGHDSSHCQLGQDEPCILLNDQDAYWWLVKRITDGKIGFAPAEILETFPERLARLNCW

T10: Bzz1-2, P38822
T10 sequence (P38822 568-633, looked up): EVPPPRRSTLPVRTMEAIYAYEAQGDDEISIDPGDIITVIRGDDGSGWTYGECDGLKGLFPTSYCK

T11: Boi2, P39969
T11 sequence (P39969 32-116, looked up): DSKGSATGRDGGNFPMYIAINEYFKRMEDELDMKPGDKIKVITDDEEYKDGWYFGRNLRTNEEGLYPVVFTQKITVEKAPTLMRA

T12: Pex13, P80667
T12 sequence (P80667 295-386, looked up): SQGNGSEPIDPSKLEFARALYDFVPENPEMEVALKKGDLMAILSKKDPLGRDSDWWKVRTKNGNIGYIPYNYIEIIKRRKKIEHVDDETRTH

T13: Cyk3, Q07533
T13 sequence (Q07533 1-83, looked up): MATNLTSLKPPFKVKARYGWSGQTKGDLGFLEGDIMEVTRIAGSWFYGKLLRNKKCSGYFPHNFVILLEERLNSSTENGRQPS

T14: Bbc1, P47068
T14 sequence (P47068 1-78, looked up): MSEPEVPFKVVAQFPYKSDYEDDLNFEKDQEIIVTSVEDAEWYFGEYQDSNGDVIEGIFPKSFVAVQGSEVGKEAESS

T15: Lsb1, P53281
T15 sequence (P53281 45-122, looked up): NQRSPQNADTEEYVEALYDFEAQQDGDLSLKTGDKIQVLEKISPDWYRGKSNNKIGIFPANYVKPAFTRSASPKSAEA

T16: Boi1, P38041
T16 sequence (P38041 1-86, looked up): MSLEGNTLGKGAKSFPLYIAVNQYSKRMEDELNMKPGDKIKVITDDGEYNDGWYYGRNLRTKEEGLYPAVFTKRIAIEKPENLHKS

T17: Myo5, Q04439
T17 sequence (Q04439 1072-1160, looked up): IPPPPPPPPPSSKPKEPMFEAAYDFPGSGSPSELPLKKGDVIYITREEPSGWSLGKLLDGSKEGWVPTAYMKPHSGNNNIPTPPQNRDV

T18: Lsb4, P32793
T18 sequence (P32793 402-468, looked up): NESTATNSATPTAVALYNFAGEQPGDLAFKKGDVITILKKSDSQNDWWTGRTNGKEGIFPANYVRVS

T19: Abp1, P15891
T19 sequence (P15891 535-592, looked up): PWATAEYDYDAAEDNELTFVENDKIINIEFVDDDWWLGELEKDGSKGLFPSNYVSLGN

T20: Bzz1-1, P38822
T20 sequence (P38822 478-572, looked up): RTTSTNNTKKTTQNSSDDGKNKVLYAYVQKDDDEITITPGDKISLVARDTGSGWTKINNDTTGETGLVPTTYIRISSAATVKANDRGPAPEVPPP

T21: Hof1, Q05080
T21 sequence (Q05080 590-669, looked up): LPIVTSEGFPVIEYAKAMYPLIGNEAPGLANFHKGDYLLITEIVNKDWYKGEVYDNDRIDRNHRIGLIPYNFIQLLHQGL

B1: unnamed (peptide)
chain: VFQFQMPTTPISTKM
B2: unnamed (peptide)
chain: PKMLPIPSKPTLFDL
B3: unnamed (peptide)
chain: TSIEIPKRSPLRFTS

Biological target: T1, Lsb3, P43603
Test: SPOT array
Settings: median of control spots 406

SPOT intensity | Binder
14 | B1
15 | B2
5 | B3

Biological target: T2, Hse1, P38753
Test: SPOT array
Settings: median of control spots 1727

SPOT intensity | Binder
0 | B1
0 | B2
0 | B3

Biological target: T3, Fus1, P11710
Test: SPOT array
Settings: median of control spots 1200

SPOT intensity | Binder
0 | B1
0 | B2
0 | B3

Biological target: T4, Sla1-3, P32790
Test: SPOT array
Settings: median of control spots 5475

SPOT intensity | Binder
0 | B1
0 | B2
0 | B3

Biological target: T5, Pin3, Q06449
Test: SPOT array
Settings: median of control spots 2171

SPOT intensity | Binder
125 | B1
69 | B2
10 | B3

Biological target: T6, Cdc25, P04821
Test: SPOT array
Settings: median of control spots 969

SPOT intensity | Binder
0 | B1
0 | B2
13 | B3

Biological target: T7, Sla1-2, P32790
Test: SPOT array
Settings: median of control spots 712

SPOT intensity | Binder
7 | B1
3 | B2
792 | B3

Biological target: T8, Nbp2, Q12163
Test: SPOT array
Settings: median of control spots 357

SPOT intensity | Binder
3 | B1
19 | B2
0 | B3

Biological target: T9, Bud14, P27637
Test: SPOT array
Settings: median of control spots 956

SPOT intensity | Binder
0 | B1
0 | B2
5 | B3

Biological target: T10, Bzz1-2, P38822
Test: SPOT array
Settings: median of control spots 4538

SPOT intensity | Binder
0 | B1
0 | B2
0 | B3

Biological target: T11, Boi2, P39969
Test: SPOT array
Settings: median of control spots 1161

SPOT intensity | Binder
0 | B1
0 | B2
2740 | B3

Biological target: T12, Pex13, P80667
Test: SPOT array
Settings: median of control spots 1341

SPOT intensity | Binder
219 | B1
52 | B2
19 | B3

Biological target: Bem1-1, P29366
Sequence (P29366 55-141): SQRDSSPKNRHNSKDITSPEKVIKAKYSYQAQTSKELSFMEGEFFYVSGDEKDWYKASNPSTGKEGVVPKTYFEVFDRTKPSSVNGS
Test: SPOT array
Settings: median of control spots 4282

SPOT intensity | Binder
0 | B1
0 | B2
0 | B3

Biological target: T13, Cyk3, Q07533
Test: SPOT array
Settings: median of control spots 1451

SPOT intensity | Binder
0 | B1
0 | B2
0 | B3

Biological target: Bem1-2, P29366
Sequence (P29366 139-227): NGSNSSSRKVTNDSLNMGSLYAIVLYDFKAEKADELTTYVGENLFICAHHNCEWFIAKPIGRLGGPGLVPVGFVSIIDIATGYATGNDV
Test: SPOT array
Settings: median of control spots 4347

SPOT intensity | Binder
5 | B1
0 | B2
0 | B3

Biological target: T14, Bbc1, P47068
Test: SPOT array
Settings: median of control spots 796

SPOT intensity | Binder
0 | B1
0 | B2
12 | B3

Biological target: Rvs167, P39743
Sequence (P39743 419-482): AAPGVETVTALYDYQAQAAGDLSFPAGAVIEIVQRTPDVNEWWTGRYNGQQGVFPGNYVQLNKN
Test: SPOT array
Settings: median of control spots 2707

SPOT intensity | Binder
0 | B1
0 | B2
0 | B3

Biological target: Sho1, P40073
Sequence (P40073 287-367): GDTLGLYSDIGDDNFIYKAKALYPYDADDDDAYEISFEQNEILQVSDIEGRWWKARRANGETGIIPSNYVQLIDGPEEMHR
Test: SPOT array
Settings: median of control spots 1148

SPOT intensity | Binder
46 | B1
164 | B2
8 | B3

Biological target: T15, Lsb1, P53281
Test: SPOT array
Settings: median of control spots 388

SPOT intensity | Binder
1 | B1
2 | B2
0 | B3

Biological target: T16, Boi1, P38041
Test: SPOT array
Settings: median of control spots 1162

SPOT intensity | Binder
0 | B1
0 | B2
3040 | B3

Biological target: GST
Test: SPOT array
Settings: median of control spots 978

SPOT intensity | Binder
0 | B1
1 | B2
0 | B3

Biological target: Myo3, P36006
Test: SPOT array
Settings: median of control spots 468

SPOT intensity | Binder
32 | B1
36 | B2
4 | B3

Biological target: T17, Myo5, Q04439
Test: SPOT array
Settings: median of control spots 471

SPOT intensity | Binder
74 | B1
52 | B2
2 | B3

Biological target: T18, Lsb4, P32793
Test: SPOT array
Settings: median of control spots 397

SPOT intensity | Binder
39 | B1
42 | B2
8 | B3

Biological target: T19, Abp1, P15891
Test: SPOT array
Settings: median of control spots 935

SPOT intensity | Binder
32 | B1
173 | B2
60 | B3

Biological target: T20, Bzz1-1, P38822
Test: SPOT array
Settings: median of control spots 4446

SPOT intensity | Binder
1 | B1
0 | B2
0 | B3

Biological target: T21, Hof1, Q05080
Test: SPOT array
Settings: median of control spots 4086

SPOT intensity | Binder
0 | B1
0 | B2
0 | B3
